Two molecules from patent US20180194839A1 (Novartis, published 2018) can be followed below.

Changes are numbered by the printed parent chain. Names and notes keep the numbering of the source.

The target of assay [1] is T1, recombinant human IL-17A/F heterodimer (human, UniProt Q16552 24-155; Q96PD4 31-163, limits assumed).
T1 sequence (looked up) 1: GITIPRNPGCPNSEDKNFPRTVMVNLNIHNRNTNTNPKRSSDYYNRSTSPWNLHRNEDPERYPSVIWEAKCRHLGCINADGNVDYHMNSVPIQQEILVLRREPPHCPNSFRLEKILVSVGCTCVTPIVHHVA
T1 sequence (looked up) 2: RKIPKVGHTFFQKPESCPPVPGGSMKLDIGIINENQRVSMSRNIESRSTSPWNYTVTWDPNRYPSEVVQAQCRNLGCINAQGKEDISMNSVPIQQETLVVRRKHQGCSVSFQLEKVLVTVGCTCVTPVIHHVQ
Put plainly: cell-based or functional assay.

Assay [2] has as its target T2, recombinant human IL-17A (SEQ ID NO: 76) (human, UniProt Q16552 24-155, limits assumed).
T2 sequence: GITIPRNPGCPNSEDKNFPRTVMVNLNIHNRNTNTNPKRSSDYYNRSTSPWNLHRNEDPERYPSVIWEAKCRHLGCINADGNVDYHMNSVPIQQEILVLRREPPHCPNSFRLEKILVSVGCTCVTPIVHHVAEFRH
The experiment in a line: cell-based or functional assay.

In assay [3] the target is T3, recombinant human IL-17F (SEQ ID NO: 77) (human, UniProt Q96PD4 31-163).
T3 sequence: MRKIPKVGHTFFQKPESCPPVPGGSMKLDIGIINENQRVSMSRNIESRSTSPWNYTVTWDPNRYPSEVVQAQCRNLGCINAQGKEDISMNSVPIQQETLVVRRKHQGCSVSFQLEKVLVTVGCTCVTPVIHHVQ
Put plainly: cell-based or functional assay.

The target in assay [4] is T4, recombinant human IL-17D (R&D Systems Cat#1504IL/CF) (human, UniProt Q8TAD2 18-202, limits assumed).
T4 construct: also called huIL-17D; hu IL-17D
T4 sequence (looked up): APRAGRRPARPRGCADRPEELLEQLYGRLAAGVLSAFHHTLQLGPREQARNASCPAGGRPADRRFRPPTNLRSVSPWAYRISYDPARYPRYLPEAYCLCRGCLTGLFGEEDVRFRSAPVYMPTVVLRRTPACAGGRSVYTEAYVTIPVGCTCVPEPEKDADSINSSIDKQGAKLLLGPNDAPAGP
The experiment in a line: ELISA, coated antigen, Ab 1 µg/ml. Background: ELISA stands for enzyme-linked immunosorbent assay.

For assay [5], the target named is T5, recombinant human IL-17C (R&D Systems Cat#1234IL/CF) (human, UniProt Q9P0M4 19-197).
T5 construct: also called huIL-17C; hu IL-17C
T5 sequence (looked up): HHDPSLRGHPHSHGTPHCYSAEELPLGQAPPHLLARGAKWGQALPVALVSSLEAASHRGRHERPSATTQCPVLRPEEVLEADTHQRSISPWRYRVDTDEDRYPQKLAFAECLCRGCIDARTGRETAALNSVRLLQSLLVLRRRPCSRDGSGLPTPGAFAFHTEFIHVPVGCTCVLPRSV
Put plainly: ELISA, coated antigen, Ab 1 µg/ml.

Assay [6] addresses T6, recombinant human IL-17B (R&D Systems) (human, UniProt Q9UHF5 21-180).
T6 construct: also called huIL-17B; hu IL-17B
T6 sequence (looked up): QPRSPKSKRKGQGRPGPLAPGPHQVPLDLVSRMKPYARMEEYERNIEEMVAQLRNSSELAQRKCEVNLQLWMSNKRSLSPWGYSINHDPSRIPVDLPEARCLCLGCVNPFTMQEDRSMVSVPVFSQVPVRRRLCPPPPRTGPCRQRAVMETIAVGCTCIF
Put plainly: ELISA, coated antigen, Ab 1 µg/ml.

In assay [7] the target is T1, recombinant human IL-17A/F heterodimer. The experiment in a line: ELISA, coated antigen, Ab 1 µg/ml.
For assay [8], the target named is T2, recombinant human IL-17A (SEQ ID NO: 76). The experiment in a line: ELISA, coated antigen, Ab 1 µg/ml.
Assay [9] has as its target T7, recombinant mouse IL-17A (SEQ ID NO: 83) (mouse, UniProt Q62386 26-158).
T7 construct: also called mIL-17A; rmIL-17A
T7 sequence: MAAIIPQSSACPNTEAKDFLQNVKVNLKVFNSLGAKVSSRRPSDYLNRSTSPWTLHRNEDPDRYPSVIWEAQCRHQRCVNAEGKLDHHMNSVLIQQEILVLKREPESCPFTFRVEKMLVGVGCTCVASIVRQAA
The experiment in a line: ELISA, coated antigen, Ab 1 µg/ml.

Assay [10] addresses T8, recombinant mouse IL-17F (SEQ ID NO: 84) (mouse, UniProt Q7TNI7 29-161).
T8 construct: also called mIL-17F; rmIL-17F
T8 sequence: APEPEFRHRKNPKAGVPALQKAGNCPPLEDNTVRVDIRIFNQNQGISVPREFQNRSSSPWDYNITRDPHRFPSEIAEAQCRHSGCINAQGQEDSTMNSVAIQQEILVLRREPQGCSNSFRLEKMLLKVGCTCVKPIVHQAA
Put plainly: ELISA, coated antigen, Ab 1 µg/ml.

Assay [11] concerns the target T9, recombinant human IL-17E (R&D Systems Cat#1258-IL/CF) (human, UniProt Q9H293 33-177).
T9 construct: also called huIL-17E; hu IL-17E
T9 sequence (looked up): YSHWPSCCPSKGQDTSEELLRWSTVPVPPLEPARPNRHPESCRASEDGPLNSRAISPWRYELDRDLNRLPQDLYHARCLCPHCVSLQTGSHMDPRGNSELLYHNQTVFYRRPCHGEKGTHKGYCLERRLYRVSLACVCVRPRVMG
The experiment in a line: ELISA, coated antigen, Ab 1 µg/ml.

For assay [12], the target named is T10, recombinant mouse IL-17A/F (R&D Systems Cat#5390-IL) (mouse, UniProt Q62386 26-158; Q7TNI7 29-161, limits assumed).
T10 construct: bought heterodimer; also called mIL-17A/F; rmIL-17A/F
T10 sequence (looked up) 1: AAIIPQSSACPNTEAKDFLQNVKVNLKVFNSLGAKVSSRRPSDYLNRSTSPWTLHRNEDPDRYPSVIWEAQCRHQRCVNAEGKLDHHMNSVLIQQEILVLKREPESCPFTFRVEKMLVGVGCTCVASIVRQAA
T10 sequence (looked up) 2: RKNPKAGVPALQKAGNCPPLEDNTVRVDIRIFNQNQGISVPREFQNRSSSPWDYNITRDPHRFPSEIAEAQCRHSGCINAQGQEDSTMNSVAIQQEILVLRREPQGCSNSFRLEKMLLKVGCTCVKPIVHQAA
Put plainly: ELISA, coated antigen, Ab 1 µg/ml.

B1: XAB4 (antibody, human IgG1, kappa, V domains shown)
VH: EVQLVESGGDLVQPGGSLRLSCAASGFTFSSYWMSWVRQAPGKGLEWVANIKQDGSEKYYVDSVKGRFTISRDNAKNSLYLQMNSLRAEDTAVYYCARDRGSLYYWGQGTLVTVSS
VL: AIQLTQSPSSLSASVGDRVTITCRPSQGINWELAWYQQKPGKAPKLLIYDASSLEQGVPSRFSGSGSGTDFTLTISSLQPEDFATYYCQQFNSYPLTFGGGTKVEIKR
notes: also called MB435 N56Q
Turning to B1, the “IC50, huIL-6 secretion by BJ cells; stimulus rhuIL-17A/F (300 pM) + rhuTNF-α (6 pM)” value in assay [1] turned out to be 0.17 nM. The “IC50, huIL-6 secretion by BJ cells; stimulus rhuIL-17A/F (3 nM)” value in assay [1] is 1.68 nM. Moreover, in assay [2], the “IC50, huIL-6 secretion by BJ cells; stimulus rhuIL-17A (1 nM)” value amounted to 0.63 nM. The “IC50, huIL-6 secretion by BJ cells; stimulus rhuIL-17F (10 nM) + rhuTNF-α (6 pM)” value in assay [3] was more than 3 µM. Besides, the “IC50, huIL-6 secretion by BJ cells; stimulus rhuIL-17F (30 nM)” value in [3] is more than 3000 nM. The O.D. in assay [4] stood at 0.034 O.D; in assay [5], 0.036 O.D; in [6], 0.034 O.D; in [7] it was 2.14 O.D; in assay [8], 2.47 O.D; in assay [9], 1.58 O.D. The O.D. in [10] came to 0.098 O.D; in [11], 0.035 O.D; in assay [12], 2.26 O.D.

B2: XAB1 (antibody, human IgG1, kappa, V domains shown)
VH: B1 VH
VL: B1 VL with N30I, W31S, E32A, Q56N
notes: human IgG1/kappa monoclonal antibody; also called parental XAB1; XAB1 IgG
For the molecule B2, the “IC50, huIL-6 secretion by BJ cells; stimulus rhuIL-17A/F (300 pM) + rhuTNF-α (6 pM)” value in assay [1] came out at 3.83 nM. For the same molecule, the “IC50, huIL-6 secretion by BJ cells; stimulus rhuIL-17A (30 pM) + rhuTNF-α (6 pM)” value in assay [2] is 0.47 nM. Moreover, the “IC50, huIL-6 secretion by BJ cells; stimulus rhuIL-17F (10 nM) + rhuTNF-α (6 pM)” value in assay [3] was more than 3 µM. The O.D. in assay [4] came out at 0.031 O.D; in assay [5] it was 0.032 O.D; in assay [6] it was 0.049 O.D; in [7], 1.22 O.D; in assay [8] it was 1.3 O.D; in assay [9], 1.44 O.D. Moreover, the O.D. in [10] came out at 0.044 O.D; in [11], 0.033 O.D; in [12], 1.76 O.D.
